Source: publication PMC1781754 (2000)

T1: IL-5 receptor alpha/beta (Homo sapiens, UniProt Q01344)
T1 chain 1: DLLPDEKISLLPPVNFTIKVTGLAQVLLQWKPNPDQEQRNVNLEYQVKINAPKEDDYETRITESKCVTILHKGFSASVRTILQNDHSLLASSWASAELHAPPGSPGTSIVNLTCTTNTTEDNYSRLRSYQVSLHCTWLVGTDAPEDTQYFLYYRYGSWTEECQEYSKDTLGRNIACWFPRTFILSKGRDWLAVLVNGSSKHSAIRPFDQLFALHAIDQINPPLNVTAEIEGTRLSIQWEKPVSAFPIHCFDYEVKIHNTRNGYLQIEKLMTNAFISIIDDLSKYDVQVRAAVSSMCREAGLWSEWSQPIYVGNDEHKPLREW
T1 chain 2: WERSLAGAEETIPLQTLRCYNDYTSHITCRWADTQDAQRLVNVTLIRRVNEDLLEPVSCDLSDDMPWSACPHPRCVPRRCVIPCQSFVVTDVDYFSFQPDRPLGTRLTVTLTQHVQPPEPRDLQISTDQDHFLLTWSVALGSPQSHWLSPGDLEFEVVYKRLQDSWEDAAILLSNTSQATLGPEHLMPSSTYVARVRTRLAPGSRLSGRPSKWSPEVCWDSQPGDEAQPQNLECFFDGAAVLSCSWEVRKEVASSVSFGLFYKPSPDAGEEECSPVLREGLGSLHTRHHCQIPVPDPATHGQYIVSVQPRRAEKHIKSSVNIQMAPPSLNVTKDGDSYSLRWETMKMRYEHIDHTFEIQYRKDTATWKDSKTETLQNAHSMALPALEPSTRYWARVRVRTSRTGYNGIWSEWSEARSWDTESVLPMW

B1: IL-5 (protein)
chain: IPKQSATLRALVRETLTLLSTHRTLLKGNETLRISVPAHKNHQLCIEEIFQGIDTLKNQTTQGEALATLFQNLSLIKKHIDLQKQKCGEERRRVKQFLDYLQEFLAVINTEWTIEG
B2: IL-5 (protein)
chain: MEIPMSTVVKETLTQLSAHRALLTSNETMRLPVPTHKNHQLCIGEIFQGLDILKNQTVRGGTVEMLFQNLSLIKKYIDRQKEKCGEERRRTRQFLDYLQEFLGVMSTEWAMEG

Molecular target: T1, IL-5 receptor alpha/beta
Test: radioligand displacement

Binder | Ki [nM]
B1 | 0.75
B2 | 0.17
